This note sets out measurements from the DeepSol protein solubility set.

The series can be described thus: soluble on expression in E. coli; label from the status in PepcDB or PDB records.
On to “MGSDKIHHHHHHMGKTLAEKIFSEHVGRDVKAGEIVLARVDIAMAQDGTGPLMINEFRELGFKEVKVPKAFLFIDHASPSPRKELSNSQKMMREFGKEMGVKVFDAGDGISHQILAEKYVKPGDLVAGADSHTCTAGGLGAFGTGMGSTDVAIIFGLGQNWFKVPETIKVVVNGKLQDGVYAKDIILEIARILGSDGATYKALEFHGSCIENMNVEDRLTISNMAVEVGAKAGLMPSDEKTREFLKKMGREEDFRELKADPDAVYETEIEIDATTLEPLVSLPHYVDNVRKVSEVEKEKIKIDQVFIGTCTNGRLQDLEIALKILEKHGKHPDVRLIVGPASRKVYMDALEKGIIKKFVELGAAVIPPGCGPCVGIHMGVLGDGERVLSTQNRNFKGRMGNPNAEIYLASPATAAATAVTGYITDPRRFI”, for which the “soluble on expression in E. coli” value is on record as “not soluble”.

Turning to “AKPVTSETMAAKTVGLQIYSLGKELYADVPGGLKKIKQMGYTNLELAGYKEGKIGGVDMMEFKKMVDDAGLKITSSHVNPPVREYTKANRSQISEYWKKTADDHAKLGVKYLIQPGQPSTRSTEETAFVCEIFNEAGKIVKAAGIPFGYHNHEMEFAKVNPGSTEAKLGRRVKGDCIYELFLKNTDPSLVFFEMDVYWAVMGQQDPIEWLKKYPNRIKVLHIKDRAILGESGMMNFENIFRQAYANGIKDYFVELEGMPDGRSQFEGVKGCVDYLLKAPFVK”, the “soluble on expression in E. coli” value was “soluble”.

Regarding “MAAINTKVKKAVIPVAGLGTRMLPATKAIPKEMLPLVDKPLIQYVVNECIAAGITEIVLVTHSSKNSIENHFDTSFELEAMLEKRVKRQLLDEVQSICPPHVTIMQVRQGLAKGLGHAVLCAHPVVGDEPVAVILPDVILDEYESDLSQDNLAEMIRRFDETGHSQIMVEPVADVTAYGVVDCKGVELAPGESVPMVGVVEKPKADVAPSNLAIVGRYVLSADIWPLLAKTPPGAGDEIQLTDAIDMLIEKETVEAYHMKGKSHDCGNKLGYMQAFVEYGIRHNTLGTEFKAWLEEEMGIKK”, the “soluble on expression in E. coli” value was “soluble”.

On to “KNFNPPTRRNWESNYFGMPLQDLVTAEKPIPLFVEKCVEFIEDTGLCTEGLYRVSGNKTDQDNIQKQFDQDHNINLVSMEVTVNAVAGALKAFFADLPDPLIPYSLHPELLEAAKIPDKTERLHALKEIVKKFHPVNYDVFRYVITHLNRVSQQHKINLMTADNLSICFWPTLMRPDFENREFLSTTKIHQSVVETFIQQCQFFFYNGEIVE”, for which the “soluble on expression in E. coli” value was “soluble”. In the case of “MGSDKIHHHHHHMEFTKKSKLKNMYVNMNVARMLSKINEYKGRQLLYKKQPKEILENLEKKSLVDCSESTYIGNQRDSSNFNLEKLISNEVTPRSREELSIVEYRDVVKTINSAYESIPISSQTILELHGYLYKFSSTRGGSYKSDNDFIEHNLKPSEFISTDSSVNKVEKAVEEICEAYNTLIEEDEIDILILISAFVLDFILIHPFKEGNIKMARVLILLLLNKNGYEVGRYISLGKIFDDSSYEYYSNLNYLKASIGSEKADMNAWIEYFLETILTAYEKLDDSLNISDKKRQTKTSRIEKIINSTLGYFTKEDIRDLCPDIPEPTINRVFNNLRKQDKIEVVARGRSAKWKKKY”, the “soluble on expression in E. coli” value was “not soluble”. The entry for “STNPKPQRKTKRNTNRRPQDVKFPGGGQIVGGVYLLPRRGPRLG” is “soluble”; for “MGSDKIHHHHHHMKEGKANILIIDDISSNIFALENLLMTENRTFFKATSGDEGLKLALSKPVDLIILDVQMPEMDGFEVANMLKSNKRTKDIPILFASAELKEQKNMLKGLEEGAIDYLFKPLDPEITKAKVNMLIRLELQRKEMVEINSALEKSAILINNCLDIICTIDAETFKFEAFNVAMTNVLGYSSEEITSQSLLFFLQESDREFIKNLKKSDSNTGSFEIQIICKDSSIKWLQWNIVVKGGKWFSNARDITERKKKDDEIIRLNQDLHENIQQLENANKELESFSYSVSHDLRAPLRSINNYAQMLEDAFAAQMDEKSTRLLGNIKRNAFRMDTLIDDLLAFSRLGRKPVQKQSINMNDLVQHVYADMQGTFKGEFVLPALPDIDADYNLLKQVVVNLLSNAIKYSGKIEEPRIEVGYTKNPNAVVYYIKDNGAGFDMEYSDKLFGVFQRLHSTKEFEGTGVGLAIVKRIVEKHGGTIWAEAKVGEGATFYFSLPAPV” it is “not soluble”. Then “MGSDKIHHHHHHMTSREQIIELIKSGEFTQAELARQMGVNSGALSSYLGGKYKGNVENIENVLASWLSTRDKKEKVFVEAPHFIEIPTADKVFKALDMARFCKTIVPIFGASGVGKTKACQEYKKRYQNVWMITISPSRASLNAFLYELALELGIKDAPRRKDRLSRLILDNLKDTEGLVIVDESDHLTYDSIEELRYLQEKAEVGFALIGNNKVYTKMQGGANQAHEYARLWNRIGKKCQIKASKKGDIKAVAQAWGLDVQDKDLMTVLYDIGGKAGGLRALTQYLRLAGMTAKGQGTGITLDLILTAQAEMTGSE”, with “not soluble”; and “MGSDKIHHHHHHMKKMTILSAAVLMALGAPVAMAKVSEAEAAKLGAELTPQGAVKAGNADGSIPAWDGGITTAVAGYSQGMHHPDPFPTDKILFTITNANKAQYKDFLNPGQVKLFELYPETYKMNVYETRRTASVPQYVYDATKANATRAELIAQGNGISGATIGVPFPIPANGLEVIWNHVLRFRGVDLETNRSQASPTADGSYTLVETAEELRFEYSRPEITLDKLKETNTLFFFKQVVTQPARLAGTALLVKETMDQEALPRQAWTYNTGQRRVRKAPNIAFDTPGTVADGLRTTDDFDMFNGSPVRYNWELVGKKEMYIPYNDYKLHSDSLKYDQILKPGHINPDLVRWEKHRVWEVKATLKAGMRHIYKTRVFYIDEDSWQVSLTDMYDNRDELYRVANAHSINYYEVPTLWTTLEVFHDLQSRRYLAMGLDNEGRMYNFKANLTESNFTPDALRRAGIR”, with “not soluble”. Then “MAPDDTVNTLFQVYKTISFWKVLKNTLVIEFGRFFPWMGGKRKIYRVCLGMEIGEKTAIAYKVMPDLFFPEKILIGENSIIGYHTTILTHEYLLSEYRVGEVVIGRDVMVGANVTILPGTVIGDGAVIAAGAVVSVDVPAGSFAYGNPLIIKEKATLTLEHHHHHH”, with “soluble”. “MTTLLIVPGFGGSGPLHWQSWIAQKYTSSLWVNDLPLLEPKIHIWADAISRAMDNIEGKILILAHSFGCLASSLAIARHPQRVVAAILVAPASPESFSENGHILPEHDDTPTIRNLLPKQTLGICGLVIASENDPWMPFNQAASLAKSFGLPTINLGLSGHINVDSGHGQWPLIDVLVGNFLFQNENVPPIPSIKTAQDKTTPHLFPNGILEHHHHHH”: the “soluble on expression in E. coli” value is recorded as “not soluble”.

In the case of “MKIRSLIRVRLTRFFPSDRYIKNRCSGADGVLIDFEKKEDKVDDYKLSSFHRLKNSKFSLPKLLVDPVTTNSNQWIPRLIEEKSVDGVAMRNFTDDVISLDNEIFTMIWDTREQRITHSIISYHRINDCDIMWNSSIRTAVQDSLEHDIQPLAARTLRFRDYETAVQEFEILRQIGFTGAVIRNPNLIEMTNEIFEK”, the “soluble on expression in E. coli” value was “not soluble”.

With “MPLTLYQRDDCHLCDQAVEVVAQARAGDFDSVFIDDDAALEAVYGARVPVLRDARGRELEWPFDRVRLRAWLDDDAERLEHHHHHH”, the “soluble on expression in E. coli” value was “not soluble”.

With “MANELATEGASGVDAPRIGPRLKAARQAQRLTLDDLAASCGITKGYLSKIERDHASASVATLVRICAALNIPVGSLFESSAAGEVVRADNYPPISFGGERMAEFLLTPFGERRIQSLLSRIEPGGGSGSETYELPVDVAFVYVVSGRICISFNGPGAGEDVSLATGDAFTFSPQLPHSFRALGDDTATVLWILTPALPDDVRPTSR”, the “soluble on expression in E. coli” value is given as “not soluble”. “FNHPASAPYIQELATICQQLAQRLQRPVRLLEVGTRTGRAAESLLAQLNAGQIEYVGLEQSQEMLLSARQRLAPWPGARLSLWNADTLAAHAHSADIIWLNNALHRLLPEDPGLLATLQQLAVPGALLYVMEFRQLTPSALLSTLLLTNGQPEALLHNSADWAALFSAAGFNCQH”: the “soluble on expression in E. coli” value is given as “not soluble”. For “MPFLPPLTPPTELYLGIQLPSPISILVNYLPVSQTPIETLRNLVYSCDINTLAIDEFMTWPSLLQPGSPFRPYFEVLVERGSIPAVYLEGVRQASNFVTVAQGLSVMTTVALSDPFACFATGLFLTCTGNHLDFLPISEKFWEMTPTLEAGHAVAEMVMYHISQLHTENARRWERSWRFVHLPSCVGQCTFHHGCRVCFFYWYAREMAIFY”, the “soluble on expression in E. coli” value is reported as “soluble”. Turning to “MVAKIKKFSDSTLSVLNNGERRFYVYCLTDLKKDKILYIGKGCGNRIFEHEWVASRSQDPVSGEIIDRKLKAISKCKKLGRYIISYHLTEVEALAAESALIHFVKSVLGKKLKNKIAGHGPGGISVEELDRRFGFSSLPLNEINPDGLILAIKIHNAFDLDTDEELDYLFDNQDDANLKSRTLGNWVIGKDVASKVKYVIGVHTGLQNAVVSAYEVDGFETMVEETKNGRKQSRYRFRTTSRSEEVLAKLGLQQKCLPELKFGSGGEKAYIRPKTETETEQENIQTTPNPKIKKEKTKSLEHHHHHH”, the “soluble on expression in E. coli” value is listed as “soluble”. As for “MCVRLENENFKAELSESGAELTSLKSKNTDNEYIWTANSSYWGRHAPILFPIVGKVKDNKYRIADKVYNLSQHGFARDMEFEVEDNASDRAVFKLVWNDETLEKYPYKFELRVIYVLKDSTVDVTYNVKNVDDKDIFFSIGAHPGFNCPVIGKQSENDELQFEDYYIEFEKRETTGVVKLNSSNLLSRNTSPFLYASNILNLSEKLFKQGALILKDLDSTSISLKNDKNTTSVTVSFEGFPYVGLWSKPEGAPFVCIEPWFGHADYEDFNGDFREKEDGLKLEVGKEFECTYSITIGELEHHHHHH”, the “soluble on expression in E. coli” value is on record as “soluble”. With “MCGITGWVDWKEDLSNQHVILKKMANRIQHRGPDAEGFWFSPRAAFAHRRLIVIDPEGGAQPKTFRAGDYTYALTYNGEIYNFRELREQLQKCGHTFETHSDTEVLLHAYLEWKEDCVQHLNGIFAFALWDDQKQRLFLARDHLGVKPLFYTERNDSIIFGSEIKALLAHPSVPAEIDADGINEIFGLGLFRTPGCGVFKHIEEVRAGHSITFTRDKKVVTKYWNLESKVHTDSIEDTSSHILSILQDTVKRQLIADVPLVCMLSGGLDSSGITALAGKEFAAENKTLHTYSVDFVNSAKDFELTFARTGLDAPWVKRVSEHVGTSHHDIIVNAEELANHLFVPLRAKDLPSAGEMETSLYLLFCEMKKDATVALSGESADEVFGGYPWFHQEELLYVDKFPWLTNWKNTSPLLLHEISNQCNLENYIDTRFQEAILEVPTLEGESKKSAKQRQMFYLFLTRFLPFLLDRKDRMSMAVGFEVRVPFCDYRLVEYLWNVPFNIKSIDNIEKGILRRALKPALPDDVRNRRKSAYPTSQDPQYLQTIRHLSLDMCSNKNNPIFSLINHSTLLAIADGSNKEINNFEARSAMEYMLQVNEWLKTYHIHIA”, the “soluble on expression in E. coli” value is on record as “not soluble”. The entry for “MSINIEQAIIHEISQDSQGQLRCRLRPQPLLNGQAVEMMLEELHQTYTSKSGKGFGYFGIHGDDGEANPAFANALKEYRAGDLGFVEFTGQASKLLQEELAKYDFSQGGFLLMSCYTSMASDYLFVALLSAKSSMTVLDDMELSQNNHLDLNNIQLAARIDLTELQADKDSRKYISFIRGRAGRKVADFFLDFMGCVEGVNTKAQNKTLMNAVEDFVASSDLTKEERQQCRNKVFEYCSERFDEGADIEIKDLADELADQGMESFYDFARGGSYELDEEFPADKSTLRQLKKFSGTGGGVTISFDGGHLGQRVIYDPISDTILIKGVPANLKDQLDRRLKGE” is “soluble”.
